Patent publication US20220267421A1 (INVOX PHARMA, published 2022)
Read-outs that look alike come from different tables or passages of the source.

Key:
[1] = molecular target: T1, cell surface human mesothelin (MSLN) (human, UniProt Q13421 296-598); assay: cell-based or functional assay
[2] = molecular target: T2, OX40 on activated T cells (UniProt P43489 29-277, limits assumed); assay: cell-based or functional assay
T2 sequence (looked up): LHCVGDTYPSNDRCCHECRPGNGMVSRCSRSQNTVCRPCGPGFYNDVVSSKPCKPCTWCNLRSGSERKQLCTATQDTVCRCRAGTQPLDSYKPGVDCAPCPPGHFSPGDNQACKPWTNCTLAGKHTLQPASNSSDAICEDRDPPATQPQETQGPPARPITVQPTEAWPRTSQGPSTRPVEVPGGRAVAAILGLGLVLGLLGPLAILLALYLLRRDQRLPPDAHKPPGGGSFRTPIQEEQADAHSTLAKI

human MSLN-His-Avi [3] = molecular target: T3, human MSLN-His-Avi (human, UniProt Q13421 296-598, single biotin (BirA) in the biotinylated form); assay: SPR as Example 4.1 (about 40 RU instead of 100), MSLN immobilised
T3 construct: Monomeric, made in HEK293-6E; Used both immobilised and in solution; also called hMSLN-His-Avi; biotinylated hMSLN-His-Avi
T3 sequence (Q13421 other isoform, or with tags, fused parts or gaps): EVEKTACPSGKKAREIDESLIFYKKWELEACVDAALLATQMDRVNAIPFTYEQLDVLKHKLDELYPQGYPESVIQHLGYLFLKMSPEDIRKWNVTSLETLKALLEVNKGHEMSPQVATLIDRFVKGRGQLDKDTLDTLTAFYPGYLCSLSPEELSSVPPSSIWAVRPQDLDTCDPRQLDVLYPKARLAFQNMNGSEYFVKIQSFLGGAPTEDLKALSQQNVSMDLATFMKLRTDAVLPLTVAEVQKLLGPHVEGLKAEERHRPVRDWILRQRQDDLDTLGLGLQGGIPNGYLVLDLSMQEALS

human MSLN-His-Avi [4] = molecular target: T3, human MSLN-His-Avi; assay: SPR as Example 4.1 (about 40 RU instead of 100), MSLN in solution
human MSLN-His-Avi [5] = molecular target: T3, human MSLN-His-Avi; assay: ratio of the two SPR KD
CD137 on CD8+ T cells = CD137 on CD8+ T cells (human, UniProt Q07011 24-255); assay: cell-based or functional assay
CD137 on CD8+ T cells, sequence (Q07011 24-255): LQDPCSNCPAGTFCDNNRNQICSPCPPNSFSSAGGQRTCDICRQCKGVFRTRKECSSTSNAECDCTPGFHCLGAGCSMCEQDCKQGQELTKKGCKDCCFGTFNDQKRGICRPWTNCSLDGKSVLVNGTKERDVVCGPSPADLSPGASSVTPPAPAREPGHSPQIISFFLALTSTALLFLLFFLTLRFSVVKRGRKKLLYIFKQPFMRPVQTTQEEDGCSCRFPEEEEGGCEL

[6] = molecular target: T1, cell surface human mesothelin (MSLN); assay: flow cytometry (BD CantoII), NCI-H226 cells
[7] = molecular target: T1, cell surface human mesothelin (MSLN); assay: flow cytometry (BD CantoII), NCI-H226 cells + 20 nM soluble MSLN
human MSLN-His-Avi [8] = molecular target: T3, human MSLN-His-Avi; assay: ratio of the two SPR KD; remark: listed apart in the source
Procedure: (§1) Human MSLN-His-Avi was immobilised on flow cell 2 on a CM5 Series S BIAcore sensor chip (GE Healthcare, BR100530) using an amine coupling kit (GE Healthcare, BR10050) to approximately 200 response units (RU). Flow cell 1 was left blank for subtraction. HEK293-6E supernatants or purified proteins were adjusted with HBS-EP+(GE Healthcare) to approximately 50 nM anti-MSLN mAb per sample. Samples were injected over flow cell 1 and 2 for 2.5 min at 30 μl/min and then allowed to dissociate in HBS-EP buffer for 2.5 min. Regeneration was achieved by injecting 10 mM glycine pH 1.5 (GE Healthcare, BR100354) for 30 seconds at a rate of 30 μl/min. Subtracted data (flow cell 2−flow cell 1) were analysed using BIAevaluation 3.2 Software (GE Healthcare).
(§2) Binding of the selected anti-MSLN clones in mAb² format, to recombinant human and cyno MSLN-His-Avi antigen was measured by SPR using a Biacore T200 processing unit (GE Healthcare). As previously described, it was desirable to bind more strongly to immobilised antigen than to soluble antigen. To assess the binding properties of the clones, binding kinetics to immobilised MSLN antigen were determined as described in section 2.1.2 and compared to the kinetics obtained when MSLN antigens in solution bound to captured clones.
(§3) For the capture experiments, clones in mAb² format were captured using a BIAcore sensor series S chip Protein G (GE Healthcare, 29179315). mAb² diluted in HBS-EP buffer (GE Healthcare, BR100188) containing 900 mM […] at 1 μg/ml, were injected individually on flow cell 2, 3 and 4 at 30 μl/min to achieve a response of approximately 100 RU. G1-AA/HeID1.3 was captured on flow cell 1. The recombinant human and cyno MSLN-His-Avi (section 1.1), diluted in HBS-EP buffer containing 900 mM […], were injected on flow cell 1, 2, 3 or 4 as appropriate at a concentration range of 1000 nM to 0.051 nM with 3-fold dilutions for 5 minutes at 70 μl/min and then allowed to dissociate in buffer for 5 minutes. Regeneration was achieved by injecting 10 mM glycine pH1.5 (GE Healthcare, BR100354) and surfactant P20 (GE Healthcare, BR-1000-54) for 20 seconds at a rate of 30 μl/min.

cynomolgus MSLN-His-Avi = molecular target: T4, cynomolgus MSLN-His-Avi (cynomolgus, single biotin (BirA) in the biotinylated form); assay: SPR (Biacore), mAb^2 captured on Protein G, MSLN in solution injected
T4 construct: Monomeric, made in HEK293-6E; also called cMSLN-His-Avi; cyno MSLN-His-Avi
T4 chain: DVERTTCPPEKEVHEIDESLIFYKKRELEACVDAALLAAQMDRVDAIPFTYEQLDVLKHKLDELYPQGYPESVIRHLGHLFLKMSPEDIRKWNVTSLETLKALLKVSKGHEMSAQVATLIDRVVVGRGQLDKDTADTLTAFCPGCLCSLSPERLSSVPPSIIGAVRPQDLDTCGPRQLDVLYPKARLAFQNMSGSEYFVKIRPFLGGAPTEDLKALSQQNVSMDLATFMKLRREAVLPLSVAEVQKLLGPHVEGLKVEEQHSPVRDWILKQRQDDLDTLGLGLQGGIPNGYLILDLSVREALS
Procedure: as §2
as §3, with “μl/min. Subtracted data (flow cell 2−flow cell 1, flow cell 3−flow cell 1, or flow cell 4−flow cell 1) were analysed using BIAevaluation 3.2 Software (GE Healthcare) to identify binding using the model 1:1 binding, local Rmax and with refractive index (RI) constant 0.” for “μl/min.”

human MSLN-His-Avi [9] = molecular target: T3, human MSLN-His-Avi; assay: as above
Procedure: as §2
as §3, with “μl/min. Subtracted data (flow cell 2−flow cell 1, flow cell 3−flow cell 1, or flow cell 4−flow cell 1) were analysed using BIAevaluation 3.2 Software (GE Healthcare) to identify binding using the model 1:1 binding, local Rmax and with refractive index (RI) constant 0.” for “μl/min.”

human MSLN-His-Avi [10] = molecular target: T3, human MSLN-His-Avi; assay: SPR (Biacore), MSLN immobilised, mAb^2 injected
Procedure: as §1, §2

mouse MSLN-His-Avi [11] = molecular target: T5, mouse MSLN-His-Avi (mouse, UniProt Q61468 298-600, single biotin (BirA) in the biotinylated form); assay: SPR (Biacore), mAb^2 captured via anti-human Fc, mMSLN-His-Avi in solution
T5 construct: Monomeric, made in HEK293-6E; also called mMSLN-His-Avi
T5 sequence: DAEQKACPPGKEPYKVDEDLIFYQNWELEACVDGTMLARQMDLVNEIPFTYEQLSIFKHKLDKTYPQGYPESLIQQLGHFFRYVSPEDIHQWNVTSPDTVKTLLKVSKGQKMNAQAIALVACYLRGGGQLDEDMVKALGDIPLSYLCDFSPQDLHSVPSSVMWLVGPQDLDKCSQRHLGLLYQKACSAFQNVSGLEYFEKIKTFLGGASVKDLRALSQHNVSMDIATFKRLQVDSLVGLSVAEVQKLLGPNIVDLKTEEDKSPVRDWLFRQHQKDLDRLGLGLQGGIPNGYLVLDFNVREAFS
Procedure: (§4) The procedure for binding to immobilised MSLN was similar to the method described in section 2.1.4 with mMSLN-His-Avi immobilised at 50 RU. To determine the affinity for soluble MSLN the mAb² were captured via anti-human Fc. Briefly, 25 μg/ml anti-human IgG (Fc) antibody (GE Healthcare, Human Antibody Capture Kit, BR100839) was coated on flow cells 1, 2, 3 and 4 of a Biacore sensor chip CM5 (GE Healthcare, BR100530) achieving a final response of approximately 750 RU. The mAb² clones, diluted in HBS-EP buffer (GE Healthcare, BR100188) at 50 nM, were injected individually on flows cell 2, 3 and 4 at 30 μl/min to achieve a response of approximately 100 RU. […] Regeneration was achieved by injecting 3 M magnesium chloride (GE Healthcare, Human Antibody Capture Kit, BR100839) for 30 seconds at a rate of 30 μl/min.

mouse MSLN-His-Avi [12] = molecular target: T5, mouse MSLN-His-Avi; assay: ratio of the two SPR KD
Procedure: as §4

mouse MSLN-His-Avi [13] = molecular target: T5, mouse MSLN-His-Avi; assay: SPR (Biacore), mMSLN-His-Avi immobilised at 50 RU
Procedure: as §4

T1 sequence (Q13421 other isoform, or with tags, fused parts or gaps limits assumed): as the sequence (Q13421 other isoform, or with tags, fused parts or gaps) above

B1: OX40 (FS20-022-049)/FS28-256-271 mAb^2 (bispecific antibody, human IgG1, kappa, L234A L235A)
heavy: EVQLLESGGGLVQPGGSLRLSCAASGFTFTHTYMSWVRQAPGKGLEWVSAISPTYSTTNYADSVKGRFTISRDNNKNTLYLQMNSLRAEDTAVYYCARYNAYHAALDYWGQGTLVTVSSASTKGPSVFPLAPSSKSTSGGTAALGCLVKDYFPEPVTVSWNSGALTSGVHTFPAVLQSSGLYSLSSVVTVPSSSLGTQTYICNVNHKPSNTKVDKKVEPKSCDKTHTCPPCPAPEAAGGPSVFLFPPKPKDTLMISRTPEVTCVVVDVSHEDPEVKFNWYVDGVEVHNAKTKPREEQYNSTYRVVSVLTVLHQDWLNGKEYKCKVSNKALPAPIEKTISKAKGQPREPQVYTLPPSRDEYWDQEVSLTCLVKGFYPSDIAVEWESNGDEQFAYKTTPPVLDSDGSFFLYSKLTVDQYRWNPADYFSCSVMHEALHNHYTQKSLSLSPG
light: EIVLTQSPGTLSLSPGERATLSCRASQSVSSSYLAWYQQKPGQAPRLLIYGASSRATGIPDRFSGSGSGTDFTLTISRLEPEDFAVYYCQQTVPYPYTFGQGTKVEIKRTVAAPSVFIFPPSDEQLKSGTASVVCLLNNFYPREAKVQWKVDNALQSGNSQESVTEQDSKDSTYSLSSTLTLSKADYEKHKVYACEVTHQGLSSPVTKSFNRGEC
T cell activation assay (IL-2 release), NCI-H226 cells for crosslinking: EC50 [1]: 0.11 nM | T cell activation assay (IL-2 release), NCI-H226 cells for crosslinking: EC50 [2]: 0.11 nM

B2: FS28-256-271 (in CD137 mAb^2 format) (bispecific antibody, V domains shown)
VH: EVQLLESGGGLVQPGGSLRLSCAASGFTFTHTYMSWVRQAPGKGLEWVSAISPTYSTTNYADSVKGRFTISRDNNKNTLYLQMNSLRAEDTAVYYCARYNAYHAALDYWGQGTLVTVSS
VL: EIVLTQSPGTLSLSPGERATLSCRASQSVSSSYLAWYQQKPGQAPRLLIYGASSRATGIPDRFSGSGSGTDFTLTISRLEPEDFAVYYCQQTVPYPYTFGQGTKVEIK
Kd (human MSLN-His-Avi [3]): 5.9 nM | Kd (human MSLN-His-Avi [4]): 18.2 nM | Ratio of KD in solution/immobilised for human MSLN-His-Avi (human MSLN-His-Avi [5]): 3 | CD8+ T cell activation assay (IL-2 release), NCI-H226 cells for crosslinking: EC50 [1]: 0.096 nM | CD8+ T cell activation assay (IL-2 release), NCI-H226 cells for crosslinking: EC50 (CD137 on CD8+ T cells): 0.096 nM

B3: FS22-053-008-AA/FS28-185 (bispecific antibody, human IgG1, kappa, L234A L235A, V domains shown)
VH: EVQLLESGGGLVQPGGSLRLSCAASGFTFTTSAMSWVRQAPGKGLEWVSRINPYEGETNYADSVKGRFTISRDNSKNTLYLQMNSLRAEDTAVYYCARGWSIATYYKSAMDYWGQGTLVTVSS
VL: EIVLTQSPGTLSLSPGERATLSCRASQSVSSSYLAWYQQKPGQAPRLLIYGASSRATGIPDRFSGSGSGTDFTLTISRLEPEDFAVYYCQQSSYSAPVTFGQGTKVEIKR
EC50 [6]: 16.3 nM | EC50 [7]: 14.3 nM | Ratio of KD in solution/immobilised for human MSLN-His-Avi (human MSLN-His-Avi [8]): 15 | Kd (cynomolgus MSLN-His-Avi): 362 nM | Kd (human MSLN-His-Avi [9]): 452 nM | Kd (human MSLN-His-Avi [10]): 30.1 nM

B4: FS22-063-AA/FS28m-228 mAb^2 (bispecific antibody, human IgG1, kappa, L234A L235A, V domains shown)
VH: EVQLLESGGGLVQPGGSLRLSCAASGFTFSTYFMVWVRQAPGKGLEWVSMISPKSSNTYYADSVKGRFTISRDNSKNTLYLQMNSLRAEDTAVYYCARWFTPARFDYWGQGTLVTVSS
VL: EIVLTQSPGTLSLSPGERATLSCRASQSVSSSYLAWYQQKPGQAPRLLIYGASSRATGIPDRFSGSGSGTDFTLTISRLEPEDFAVYYCQQPFPFSFTFGQGTKVEIKR
notes: LALA
Kd (mouse MSLN-His-Avi [11]): 252 nM | Ratio of KD in solution/immobilised for mouse MSLN-His-Avi (mouse MSLN-His-Avi [12]): 31.9 | Kd (mouse MSLN-His-Avi [13]): 7.9 nM

B5: FS22m-063-AA/FS28m-228-010 mAb^2 (bispecific antibody, human IgG1, kappa, L234A L235A, V domains shown)
VH: EVQLLESGGGLVQPGGSLRLSCAASGFTFSTYFMVWVRQAPGKGLEWVSMISPKSSNTYYADSVKGRFTISRDNSKNTLYLQMNSLRAEDTAVYYCARYHISPRFDYWGQGTLVTVSS
VL: EIVLTQSPGTLSLSPGERATLSCRASQSVSSSYLAWYQQKPGQAPRLLIYGASSRATGIPDRFSGSGSGTDFTLTISRLEPEDFAVYYCQQPFPFSFTFGQGTKVEIKR
notes: Anti-mouse CD137 Fcab with anti-mouse MSLN Fab; LALA; also called CD137/MSLN mAb^2
Kd (mouse MSLN-His-Avi [11]): 60.2 nM | Ratio of KD in solution/immobilised for mouse MSLN-His-Avi (mouse MSLN-His-Avi [12]): 23.2 | Kd (mouse MSLN-His-Avi [13]): 2.6 nM
